Each block holds one molecule with its values, some of them ahead of it.
Key:
[1] = target: T1, ParB(E111Q) (Bacillus subtilis, UniProt P26497, E111Q); assay: ITC; also N-gate cross-linking and BLI DNA loading; no appreciable hydrolysis; assay type: binding
T1 construct: gene spo0J; full-length, untagged
T1 sequence (P26497 1-282 E111Q): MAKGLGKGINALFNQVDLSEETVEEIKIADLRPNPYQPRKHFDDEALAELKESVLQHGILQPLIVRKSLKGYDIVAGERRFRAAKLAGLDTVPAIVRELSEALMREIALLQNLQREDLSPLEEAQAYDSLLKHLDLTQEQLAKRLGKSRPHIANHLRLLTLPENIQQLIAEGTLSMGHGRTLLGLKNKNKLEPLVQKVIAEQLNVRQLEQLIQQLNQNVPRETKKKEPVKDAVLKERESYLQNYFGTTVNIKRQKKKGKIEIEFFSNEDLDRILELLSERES

[2] = target: T2, ParB (Bacillus subtilis, UniProt P26497); assay: ITC; also CTP hydrolysis (malachite green), N-gate cross-linking and BLI DNA loading; assay type: binding
T2 construct: gene spo0J; full-length, untagged
T2 sequence (P26497 1-282): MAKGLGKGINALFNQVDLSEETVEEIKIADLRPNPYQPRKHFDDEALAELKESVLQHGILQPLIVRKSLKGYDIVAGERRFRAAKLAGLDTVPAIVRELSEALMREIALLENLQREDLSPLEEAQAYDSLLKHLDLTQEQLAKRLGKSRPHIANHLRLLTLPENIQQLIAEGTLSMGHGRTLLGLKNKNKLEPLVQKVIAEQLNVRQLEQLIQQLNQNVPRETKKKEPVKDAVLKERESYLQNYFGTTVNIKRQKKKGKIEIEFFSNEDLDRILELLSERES

[3] = target: T3, ParB(E78Q) (Bacillus subtilis, UniProt P26497, E78Q); assay: ITC; also N-gate cross-linking and BLI DNA loading; no appreciable hydrolysis; assay type: binding
T3 construct: gene spo0J; full-length, untagged
T3 sequence (P26497 1-282 E78Q): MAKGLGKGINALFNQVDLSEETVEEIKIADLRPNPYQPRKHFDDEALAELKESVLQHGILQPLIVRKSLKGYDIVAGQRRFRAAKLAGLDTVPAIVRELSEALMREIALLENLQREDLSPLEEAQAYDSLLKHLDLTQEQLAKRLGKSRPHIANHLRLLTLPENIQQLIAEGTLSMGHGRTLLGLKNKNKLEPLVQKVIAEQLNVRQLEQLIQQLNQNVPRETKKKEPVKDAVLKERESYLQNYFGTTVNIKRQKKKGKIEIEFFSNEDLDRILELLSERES

[4] = target: T2, ParB; assay: BLI of ParB loading on and dissociation from parS DNA with nucleotide; N-gate cross-linking; assay type: biochemical
[5] = target: T1, ParB(E111Q); assay: N-gate closure by BMOE cross-linking (T22C); BLI DNA loading; assay type: biochemical
[6] = target: T3, ParB(E78Q); assay: as above; assay type: biochemical
[7] = target: T4, ParB(T22C, E78Q)-HT, P26497; assay: in vivo BMOE cysteine cross-linking (SDS-PAGE, HaloTag TMR in-gel fluorescence, band quantification); settings: chain shown with the change, read off a plot
T4 chain: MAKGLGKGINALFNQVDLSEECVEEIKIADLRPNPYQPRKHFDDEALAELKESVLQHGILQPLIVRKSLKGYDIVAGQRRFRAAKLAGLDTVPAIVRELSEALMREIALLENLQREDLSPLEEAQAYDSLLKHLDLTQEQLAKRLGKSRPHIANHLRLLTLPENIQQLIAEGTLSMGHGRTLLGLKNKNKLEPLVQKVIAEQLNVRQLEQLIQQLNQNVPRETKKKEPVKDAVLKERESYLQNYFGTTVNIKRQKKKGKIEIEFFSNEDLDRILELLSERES

[8] = target: the molecule itself; assay: cross-linking; in vitro BMOE (1 mM) cysteine cross-linking, 10 uM ParB, with or without 1 mM CTP or CTPγS and 1 uM 40-bp parS DNA, 150 mM NaCl, 50 mM tris-HCl pH 7.5, 5 mM MgCl2, room temperature; SDS-PAGE, Coomassie
[9] = target: T5, ParB(T22C, E111Q)-HT, P26497; assay: in vivo BMOE cysteine cross-linking (SDS-PAGE, HaloTag TMR in-gel fluorescence, band quantification); settings: chain shown with the change, read off a plot
T5 chain: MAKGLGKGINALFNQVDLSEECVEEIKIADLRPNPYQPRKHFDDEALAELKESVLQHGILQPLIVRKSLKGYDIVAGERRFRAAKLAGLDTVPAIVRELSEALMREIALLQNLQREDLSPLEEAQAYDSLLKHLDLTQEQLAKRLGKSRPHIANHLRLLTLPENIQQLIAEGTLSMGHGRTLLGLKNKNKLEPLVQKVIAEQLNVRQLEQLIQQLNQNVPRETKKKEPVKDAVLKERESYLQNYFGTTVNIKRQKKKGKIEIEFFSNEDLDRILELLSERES

[10] = target: T6, ParB(R105C, H133C, E78Q)-HT, P26497; assay: as above; settings: chain shown with the change, Inter XL plus Inter 2XL species, read off a plot
T6 chain: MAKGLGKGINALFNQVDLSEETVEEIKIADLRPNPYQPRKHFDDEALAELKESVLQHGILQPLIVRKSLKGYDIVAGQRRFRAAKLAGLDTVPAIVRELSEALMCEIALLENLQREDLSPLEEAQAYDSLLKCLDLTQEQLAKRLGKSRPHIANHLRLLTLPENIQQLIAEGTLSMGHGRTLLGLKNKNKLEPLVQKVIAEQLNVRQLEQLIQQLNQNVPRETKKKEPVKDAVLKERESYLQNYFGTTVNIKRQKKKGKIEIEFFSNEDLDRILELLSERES

[11] = target: T7, ParB(R105C, H133C, E111Q)-HT, P26497; assay: as above; settings: chain shown with the change, Inter XL plus Inter 2XL species, read off a plot
T7 chain: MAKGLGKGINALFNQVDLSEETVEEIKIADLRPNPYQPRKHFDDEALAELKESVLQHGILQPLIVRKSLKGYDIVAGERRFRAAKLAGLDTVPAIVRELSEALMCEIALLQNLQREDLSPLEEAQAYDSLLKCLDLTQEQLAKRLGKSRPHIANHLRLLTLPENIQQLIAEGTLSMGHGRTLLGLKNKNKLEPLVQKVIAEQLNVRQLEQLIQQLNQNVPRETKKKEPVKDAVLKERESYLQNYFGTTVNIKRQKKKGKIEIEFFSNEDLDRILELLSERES

[12] = parS: Δ8 (strain lacking the 8 parS sites)

Molecule: Nc1ccn([C@@H]2O[C@H](COP(=O)(O)OP(=O)(O)OP(=O)(O)O)[C@@H](O)[C@H]2O)c(=O)n1 [CTP]
- Kd [1]: 5 to 8 µM
- Kd [2]: 5 to 8 µM
- Kd [3]: 5 to 8 µM

Molecule: Nc1ccn([C@@H]2O[C@H](COP(=O)(O)OP(=O)(O)OP(O)(O)=S)[C@@H](O)[C@H]2O)c(=O)n1 [CTPγS]
- BLI of ParB loading on and dissociation from parS DNA with nucleotide; N-gate cr [4]: differences in the dissociation rates between wild-type and EQ proteins were eliminated when CTPγS was used instead of CTP
- N-gate closure by BMOE cross-linking (T22C); BLI DNA loading [5]: we found that the EQ mutants supported N-gate closure equally well with CTP and CTPγS
- N-gate closure by BMOE cross-linking (T22C); BLI DNA loading [6]: we found that the EQ mutants supported N-gate closure equally well with CTP and CTPγS

- other: fraction of cross-linked dimers ([7]; N-N XL species): 0.57
- other: fraction of cross-linked species ([7]; parS: All): 0.72
- other: fraction of cross-linked species [7, 12]: 0.52
B1: ParB(T22C, E78Q) (natural protein, B. subtilis, UniProt P26497 1-282, looked up)
chain: MAKGLGKGINALFNQVDLSEECVEEIKIADLRPNPYQPRKHFDDEALAELKESVLQHGILQPLIVRKSLKGYDIVAGQRRFRAAKLAGLDTVPAIVRELSEALMREIALLENLQREDLSPLEEAQAYDSLLKHLDLTQEQLAKRLGKSRPHIANHLRLLTLPENIQQLIAEGTLSMGHGRTLLGLKNKNKLEPLVQKVIAEQLNVRQLEQLIQQLNQNVPRETKKKEPVKDAVLKERESYLQNYFGTTVNIKRQKKKGKIEIEFFSNEDLDRILELLSERES
notes: ParB, B. subtilis, untagged recombinant protein, CTP hydrolysis-defective mutant with the T22C reporter cysteine; source: E. coli BL21-Gold (DE3), purified (ammonium sulfate, heparin, HiTrap SP, Superdex 200)
- binding result [8]: binds

B2: ParB(T22C) (natural protein, B. subtilis, UniProt P26497 1-282, looked up)
chain: MAKGLGKGINALFNQVDLSEECVEEIKIADLRPNPYQPRKHFDDEALAELKESVLQHGILQPLIVRKSLKGYDIVAGERRFRAAKLAGLDTVPAIVRELSEALMREIALLENLQREDLSPLEEAQAYDSLLKHLDLTQEQLAKRLGKSRPHIANHLRLLTLPENIQQLIAEGTLSMGHGRTLLGLKNKNKLEPLVQKVIAEQLNVRQLEQLIQQLNQNVPRETKKKEPVKDAVLKERESYLQNYFGTTVNIKRQKKKGKIEIEFFSNEDLDRILELLSERES
notes: ParB, B. subtilis, untagged recombinant protein with a cysteine at the N-gate; source: E. coli BL21-Gold (DE3), purified (ammonium sulfate, heparin, HiTrap SP, Superdex 200)
- binding result [8]: binds

B3: ParB(R105C, H133C) (natural protein, B. subtilis, UniProt P26497 1-282, looked up)
chain: MAKGLGKGINALFNQVDLSEETVEEIKIADLRPNPYQPRKHFDDEALAELKESVLQHGILQPLIVRKSLKGYDIVAGERRFRAAKLAGLDTVPAIVRELSEALMCEIALLENLQREDLSPLEEAQAYDSLLKCLDLTQEQLAKRLGKSRPHIANHLRLLTLPENIQQLIAEGTLSMGHGRTLLGLKNKNKLEPLVQKVIAEQLNVRQLEQLIQQLNQNVPRETKKKEPVKDAVLKERESYLQNYFGTTVNIKRQKKKGKIEIEFFSNEDLDRILELLSERES
notes: ParB, B. subtilis, untagged recombinant protein with cysteines at the N-M interface; source: E. coli BL21-Gold (DE3), purified (ammonium sulfate, heparin, HiTrap SP, Superdex 200)
- binding result [8]: binds

- other: fraction of cross-linked dimers ([9]; N-N XL species): 0.36
- other: fraction of cross-linked species ([9]; parS: All): 0.49
- other: fraction of cross-linked species [9, 12]: 0.45
B4: ParB(T22C, E111Q) (natural protein, B. subtilis, UniProt P26497 1-282, looked up)
chain: MAKGLGKGINALFNQVDLSEECVEEIKIADLRPNPYQPRKHFDDEALAELKESVLQHGILQPLIVRKSLKGYDIVAGERRFRAAKLAGLDTVPAIVRELSEALMREIALLQNLQREDLSPLEEAQAYDSLLKHLDLTQEQLAKRLGKSRPHIANHLRLLTLPENIQQLIAEGTLSMGHGRTLLGLKNKNKLEPLVQKVIAEQLNVRQLEQLIQQLNQNVPRETKKKEPVKDAVLKERESYLQNYFGTTVNIKRQKKKGKIEIEFFSNEDLDRILELLSERES
notes: as for B1
- binding result [8]: binds

- other: fraction of cross-linked dimers [10]: 0.77
B5: ParB-HT (wt) R105C; H133C; E78Q (protein)
chain: MAKGLGKGINALFNQVDLSEETVEEIKIADLRPNPYQPRKHFDDEALAELKESVLQHGILQPLIVRKSLKGYDIVAGQRRFRAAKLAGLDTVPAIVRELSEALMCEIALLENLQREDLSPLEEAQAYDSLLKCLDLTQEQLAKRLGKSRPHIANHLRLLTLPENIQQLIAEGTLSMGHGRTLLGLKNKNKLEPLVQKVIAEQLNVRQLEQLIQQLNQNVPRETKKKEPVKDAVLKERESYLQNYFGTTVNIKRQKKKGKIEIEFFSNEDLDRILELLSERES

- other: fraction of cross-linked dimers [11]: 0.2
B6: ParB-HT (wt) R105C; H133C; E111Q (protein)
chain: MAKGLGKGINALFNQVDLSEETVEEIKIADLRPNPYQPRKHFDDEALAELKESVLQHGILQPLIVRKSLKGYDIVAGERRFRAAKLAGLDTVPAIVRELSEALMCEIALLQNLQREDLSPLEEAQAYDSLLKCLDLTQEQLAKRLGKSRPHIANHLRLLTLPENIQQLIAEGTLSMGHGRTLLGLKNKNKLEPLVQKVIAEQLNVRQLEQLIQQLNQNVPRETKKKEPVKDAVLKERESYLQNYFGTTVNIKRQKKKGKIEIEFFSNEDLDRILELLSERES

B7: ParB(A102C, H133C) (natural protein, B. subtilis, UniProt P26497 1-282, looked up)
chain: MAKGLGKGINALFNQVDLSEETVEEIKIADLRPNPYQPRKHFDDEALAELKESVLQHGILQPLIVRKSLKGYDIVAGERRFRAAKLAGLDTVPAIVRELSECLMREIALLENLQREDLSPLEEAQAYDSLLKCLDLTQEQLAKRLGKSRPHIANHLRLLTLPENIQQLIAEGTLSMGHGRTLLGLKNKNKLEPLVQKVIAEQLNVRQLEQLIQQLNQNVPRETKKKEPVKDAVLKERESYLQNYFGTTVNIKRQKKKGKIEIEFFSNEDLDRILELLSERES
notes: as for B3
- binding result [8]: binds
